According to a protein production outcome set (Wang et al. 2014):

Assay: label from the status in PepcDB records
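Also: failed if final PepcDB status was selected cloned or expressed and not failed if soluble or beyond.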

For “CTRAVYLGPDRMVVTGRTMDWKEDIMSNIYVFPRGMQRAGHNKEKTVNWTSKYGSVIATGYDIGTCDGMNEKGLVASLLFLPESVYSLPGDTRPAMGISIWTQYVLDNFATVREAVDEMKKETFRIDAPRMPNGGPESTLHMAITDETGNTAVIEYLDGKLSIHEGKEYQVMTNSPRYELQLAVNDYWKEVGGLQMLPGTNRSSDRFVRASFYIHAIPQTADAKIAVPSVLSVMRNVSVPFGINTPEKPHISSTRWRSVSDQKNKVYYFESTLTPNLFWLDLKKIDFSPKAGVKKLSLTKGEIYAGDAVKDLKDSQS”, the protein production was “not failed”.
In the case of “MTQPVPVHYTLRPVSPEAHLFEATVTISHPAKDGQVFFLPAWIPGSYMIREFSKHIVGMAASAGGKPVALRQLEKNRWQAAPAKGALTLRYQVYAFDLSVRGAYLDGERGFFNGTSVFLAAEGYEGEACTVDIHAPEGKAYAEWKVATSLPAEDVKKKTGFGRYRAADYDELIDHPVEMGDFKKVSFKACGVPHEFVVSGRFQGELKRLAEDTRKICECQIKLFGEPAPFDRYVFMLFVGKDIYGGLEHRASTALVANRDDLPAPGAAEIGDGYLKLLGLISHEYFHSWNVKRMKPAAFTPYDLNREGMTRLLWAFEGITSYYDDLTLVRCGLIDEKRYLGLLAETITGVQRGAGRLKQTLEQSSFEAWTKYYRQDENSPNSIVSYYTKGSLAALALDLLIRRDSKGKQSLDDVMRALWAKWLADGKGLEEGEWEKIAIETTGLKLKPFFDLALRSTGELPLAELLKSQGVELKFEAAQGASDRGGVVDAFAGKPAPLTLGVKTAADAAGVKLLQVLDGGAAQAAGLSGGDVVVAVDKLRAYDLDKQIARFAAGDKIKLHAFRRDELMTFEVAPQAAPEDTCRLKLDAGGGKWIAGRLEHHHHHH”, the protein production is reported as “failed”.
In the case of “MGLVIYDTLARRKVPFEPAVPGHVGIYVCGPTVYADPHLGHARGPVVYDVLRRYLLHKGYKVRFVSNITDVGHLTDDADEGEDKIVRRAKLERLEPMEVAEKYTWSYFDAMQALNVLRPSIAPRASGHIPEMLELTERLLARGVAYERKGSVYFRVRSFPEYGKLSGKRLEELRAGARVEVREEKEDPLDFALWKAAEPGHIMRWKSPWGEGYPGWHIECTAMSLKYLGEGFDLHAGGIDLQFPHHECEIAQAEAAGFRFARHWMHHNHVLLEGEKMAKSTGNLVLLHDLLEAHEPMALRFYLLQTHYRSPMDFTWEGLESAKRGYGRLLHAYREVRGRKKTAPPGTTPELERALDALEKAFMEAIEDDLSTPEALAALFAFLPELHKLLPEAKAESLARAEAVFHTLGEGILGLFPERVLEERVSGPLLEGLIALLLELREEARRAKDYEKSDLIRERLRALGVIVEDTKEGPRWRLER”, the protein production is reported as “not failed”.
In the case of “MTSTFNPRECKLSKQEGQNYGFFLRIEKDTEGHLVRVVEKCSPAEKAGLQDGDRVLRINGVFVDKEEHMQVVDLVRKSGNSVTLLVLDGDSYEKAVKTRVDLKELGQSQKEQGLSDNILSPVMNGGVQTWTQPRLCYLVKEGGSYGFSLKTVQGKKGVYMTDITPQGVAMRAGVLADDHLIEVNGENVEDASHEEVVEKVKKSGSRVMFLLVDKETDKRHVEQKIQFKRETASLKLLPHQPRIVEMKKGSNGYGFYLRAGSEQKGQIIKDIDSGSPAEEAGLKNNDLVVAVNGESVETLDHDSVVEMIRKGGDQTSLLVVDKETDNMYRLAHFSPFLYYQSQELPNGSVKEAPAPTPTSLEVSSPPDTTEEVDHKPKLCRLAKGENGYGFHLNAIRGLPGSFIKEVQKGGPADLAGLEDEDVIIEVNGVNVLDEPYEKVVDRIQSSGKNVTLLVCGKKAYDYFQAKKIPIVSSLADPLDTPPDSKEGIVVESNHDSHMAKERAHSTASHSSSNSEDTEM”, the protein production is reported as “failed”.
With “MNDALHIGLPPFLVQANNEPRVLAAPEARMGYVLELVRANIAADGGPFAAAVFERDSGLLIAAGTNRVVPGRCSAAHAEILALSLAQAKLDTHDLSADGLPACELVTSAEPCVMCFGAVIWSGVRSLVCAARSDDVEAIGFDEGPRPENWMGGLEARGITVTTGLLRDAACALLREYNACNGVIYNARCGVHK” the protein production was “not failed”.
In the case of “MGQPVASKGRGATPTVGKAMLNKYARAFFTRVLTPFAAFLIRRGVSPDTVTLLGTAGVVAGALVFYPMGEFFWGTVVITLFVFSDLVDGNMARQLGRSSRWGAFLDSTLDRVADGAIFGGLALWYAGGGDDIVLCAVSIFCLASGQVVSYTKARGEAIGLPVAVNGLVERAERLVVSLVAAGFAGLHKFGVPGIQYLLPIALWIVAVGSLVTLVQRVVTVRREAAEADAAAQESQGTEAAK”, the protein production is reported as “failed”.
With “MTYELSTDREFDLIAIGRACIDLNAVEYNRPMEETMTFSKYVGGSPANIVIGSSKLGLKAGFIGKIADDQHGRFIESYMRGVGVDTSNLVVDQEGHKTGLAFTEIKSPEECSILMYRQDVADLYLSPEEVNEAYIRRSKLLLVSGTALSKSPSREAVLKAIRLAKRNDVKVVFELDYRPYSWETPEETAVYYSLVAEQSDIVIGTREEFDVLENRTEKGDNDETIRYLFKHSPELIVIKHGVEGSFAYTKAGEAYRGYAYKTKVLKTFGAGDSYASAFLYALISGKGIETALKYGSASASIVVSKHSSSDAMPSVEEIEALIEKDETITIA” the protein production was “not failed”.
With “MSANPDRFLGRAEVYAAARPDYPPALGNELARRGLLRGQVADLGAGTGLFTRLLLQRGAQVIAVEPNPEMREQLLRALAAEVTRGQLRVQSGTAEATGLPGSSVDLLTAAQAAHWFDPAPTRREFQRVLRPGGQVLFVWNDWREADGPFNEAYGAVVAHFSPEEGRVRTRVPRDELAQWFSGAPEELSFDHPLTFTRERLHALAGSVSYLPAPGSERFPELLARLDQAFDRQARQDTVELTYRTFAFLGRV” the protein production was “failed”.
With “LAMPPGNSHGLEVGSLAEVKENPPFYGVIRWIGQPPGLNEVLAGLELEDECAGCTDGTFRGTRYFTCALKKALFVKLKSCRPDSRFASLQP” the protein production was “not failed”.
With “MLSIKQLSYALAVSKTLHFRKAADLCHVRQSTLSTGVSELERQLGIKIFERDNKKVLVTPLGREVLDKASNIMLQLEDMAHLDHSCGEP” the protein production was “failed”.
For “MKKLTVYLATTNPHKVEEIKMIAPEWMEILPSPEKIEVVEDGETFLENSVKKAVVYGKKLKHPVMADDSGLVIYSLGGFPGVMSARFMEEHSYKEKMRTILKMLEGKDRRAAFVCSATFFDPVENTLISVEDRVEGRIANEIRGTGGFGYDPFFIPDGYDKTFGEIPHLKEKISHRSKAFRKLFSVLEKILESENR”, the protein production was “not failed”.
In the case of “RDTSVVVEHTSANPTGPVHVGRARNPIIGDAVARVLDYAGYDVDRHYYVNDAGRQIAVFTWAYETFDEDDLPEPERESPEYEMVRYYRKGNTILEDGDPDEVEAAEAEVQSILQGLEDGDEETYERVAEVVDTVLGGMQNTLGRLPAEFDEFVKETKFMRNGDTDDLVDRLKGLDCAVYEEDAWQLDLPDFEKNLVFLRSDGTSLYTTRDLAHHEWKFDTYDRAVTVLGEDHKLQADQLAAALELLDNDTDQLRQVFYSWVNLPEGGMSTREGTGIDLDDLLDEAIDRAREEVESRLDDRTRGDLDEDDIDRIARQVGIGAVRYDIVSKQPTKGITFEWDRALDFEAQSAPYVQYV”, the protein production is reported as “failed”.
With “LEEHEQFNHKIVASAPVGISILRIRDGMIILSNELAHNYFRLLSHSDKQNILSIIAEKSSNIVDVVTNNHNHLQISFVNSRYQNEDVAICVLVDISARVKMERSLQNMATAAEQANQAKSMFLATVSHELRTPLYGIIGNL” the protein production was “failed”.
For “MGVSPQVARWFDCDLRSVVDHGVDRLRFTWKLGDPVEAELPSEEPFWMVRRDRFDHFLVEQAANLGARIEDGAAVTAVSAEGDGWLVTVGDRAYRSRTLIAADGARGPLAQWLGFPSQKRRYAQACELDVPLPARPDSTAHFEFGLVRNGYIWVFPKSDGYSIGIGTFRGNDATDFRGLLETYLAGFGVSADLDRIVPHPLCVWDGSQPLHRGSALLVGEAASLTDPFTAEGIRPALLSGMRAAEAIDRAIAGDRNALAGYSRTIQQEWGDSMAWAKRISSVFYRVPNLGYQIGIKRPTAPQRMAQILVGELDYSDIATRVIRRLTTGFLPGMRLEHHHHHH”, the protein production was “failed”.
With “MQREKTQTNLRLDEGGGSVWQKCSRHEGRFVCVAGVCPYCLHERLSSLCPDCAHDLPCSCTPRASVSSRGEGDVSFARIGSVGRVANLIECEPAFRRSTSITGPYFWSAKPEPILETEKDLKPGRGRWLWRLFRGNREEETKIKAAKVMKKSNSVAGEVLFSPTPVTSKGNGWYFPSPIKVFRQSRVSKMIFQQRSPLYRG” the protein production was “failed”.
For “MAGASHDIHPPKVEYFDLRDHTNTDPKGFVRHVDHYRVEPWGLYMARTSDHPQFHYLESWLLPDLGLRASIFHYHPYHQRDQDHYVDIGTFTRGDDVWKSEDHYLDLVVRTGRDTELLDVDELMEAHTTGLLDTATAEQAILTATTAIDGIAAHGHDLGRWLASIGMPIDWR”, the protein production was “not failed”.
For “MDWFSWLSRTNLEASLIYEYGLSFSNNELEYEDIAYFNHEFLQSMGISIAKHRLEILKLARRDRKPSPLTARSIFRVLIAIKKTGKCFSEHVRAWIRREESSRALVVVSRSTSSSGNGRWKSARKKRLVMPSNGNGVKEERLLLTNGTPCRLDSFSNPKVSSGYEDDDNHWGNKDVEEKIKWDSMFQNLKPT”, the protein production was “failed”.
With “MNVLLVSVNREHAPYPVFPLGLACLAGPLRAAGHRLSVLDLCFAADPEEATRQALAEFSPDVVVLSLRNIDNVTYPGSRSYLSGVRDVVAICRERAAVVVGGSGFSLMPREVLAYLGADYGVVGEGEDVLPRLLARIAAGEGGDGLPGVVARENAGFLPPHPVQAIGTPLRGLFQVERYHREGGMANIQTKRGCPFSCIYCTYPLLEGERMRLRPVADIIAEIGDLVDVHGVSYLYFVDDIFNYPLEFALELCRAMSAARLPVAWSAFINPDFLPPQLLDAMLAAGCDALEFGTDSGSPVMLRNLRKSFGIEKVREASRLCREAGVDFAHYILFGGPGETPATIAESFALMDEVAPTAVIAMTGIRIFPGTAIYRQALADGLITPETDLLRPAFYIAPTIADTLCELVREEALKRTNWVVPGLEITANDAMLEALRHFAGPGPLWKMLKLLGRRRGSVPSPWSHSPS” the protein production was “failed”.
In the case of “MEESDVLISLIEILKIHQKVIDYDKFKDPEDYTPAIRSLATLELMFEYLIKESNTIFENAAVIVYTIVAKHPFFNGNKRTGYEAMNFIIEDGGYGFTSTDEEMIEFIIRVATTENEMSIEEIKEWIIRHTEKILLEHHHHHH”, the protein production is reported as “not failed”.
In the case of “MSNLPLISVVIPTYGREEILRDSIVDVLNQDYPKYEVLVVDQSPKHKPEIETYLEEVAAAGKVKWFRLDWASLPGARNYAIRRASGEIILFIDDDVKLKPGFLAAHAKNYVQNPDVGSVAGRVFDRMKLGDSGGNLEIEYLPPEAMDPGVAWYHIDLVHTIKPQQVLTARGCNMSFRREIFTKHGLRFDERFRGSAVREESDFCLRLRQTGYKIWYDPEADLIHLGEETGGCHDISMRSLKYQFTFYHNHFLLGLKNLNFSQALRLYARLFDCHVLGRPPCHKSGSPIKIITRGIFYILGFFRALGSVIQSNWHDGQIYSRLDQESIIKSQESMVNS”, the protein production is reported as “failed”.
For “MILLGVSERSDHSLHITGVDDAHKLVQDFWNTVHDSSTISSVVLSENDVVVRHTGQGDIVSIDIPRASRERIPVYVGPNPLKGSYRRNGDGDYLCDSETVHAMLRDSDLRPLDRKIVGG”, the protein production was “failed”.
In the case of “MLNALKNRLRVWYDPEMKAIARIIREMNSKGGDDLVVTECNKVFVDRLRVFPIALKMDFWEHHFELEGFSDFPEIGGDILDFGCGSGHLDVYLARRGFTVTGVDLSPVGIAIASFIRENEAADVKKRLLFFVADVTADLPPRQFDAAWSAHVFEHIKNPGPVLAGLKNWIKPGGSLLISVPFGRAYDDPGHVNHFYSEADLQHYLGGHISVERIKIYRDHQVIRALCKNDGDGKNDR”, the protein production is reported as “failed”.
